Data on 19 molecules can be found in publication PMC13360575.

The assay deals with chicken IgY (chicken). In words: BLI; Octet, SAX (streptavidin) biosensors; recombinant Fabs against IgY; KD from a kinetic 1:1 model, global fit over multiple concentrations (partial fits averaged for 3 low-affinity Fabs). On the technique in general: In BLI a coated tip is dipped into the sample, and binding shifts an interference pattern.

Usually Kd stands for a measure of binding affinity in units of concentration. In general, koff refers to the rate constant with which the complex falls apart. What is called kon is the rate constant with which the complex forms.

B1: clone 2.1 Fab CB_01 (clonal burst) (Fab, V domains shown)
VH: EVQLQESGPSLVKPSQTLSLTCSVTGDSITSGYWNWIRKFPGNKLEYMGYISYSGSTYYNPSLKSRISFTRDTSKNQYYLQLNSVTTEDTATYYCARDFDVWGAGTTVTVSS
VL: DIVMTQSQKFMSTSVGDRVSVTCKASQNVGTNVAWSQQKPGQSPKALIYSASYRYSGVPDRFTGSGSGTDFTLTISNVQSEDLAEYFCQQYKSYPLTFGSGTKLEIK
For the molecule B1, the Kd is 3.77 nM, the koff was determined as 0.000398 s⁻¹ and the on-rate constant (kon) was 105000 M⁻¹ s⁻¹.

B2: clone 2.1 Fab TA_12 (Fab, V domains shown)
VH: EVQLQESGPSLVKPSQTLSLTCSVTGDSITSGYWNWIRKFPGNKLEYMGYISYSGSTYYNPSLKSRISITRDTSKNQYYLQLNSVTTEDTATYYCARDFDVWGAGTTVTVSS
VL: DIVMTQSQKFMSTSVGDRVSVTCKASQNVGTNVAWFQQKPGQSPKALIYSASYRYSGVPDRFTGSGSGTDFTLTISNVQSEDLAEYFCQQYNSYPLTFGSGTKLEIK
Turning to B2, the dissociation constant Kd was found to be 22.7 nM, the dissociation rate constant (koff) was found to be 0.00408 s⁻¹ and the kon turned out to be 180000 M⁻¹ s⁻¹.

B3: clone 2.1 Fab TA_26 (Fab, V domains shown)
VH: EVQLQESGPSLVKPSQTLSLTCSVTGDSITSGYWNWIRKFPGNKLEYMGYISYSGSTYYNPSLKSRISITRDTSKNQYYLQLNSVTTEDTATYYCARDFDVWGAGTTVTVSS
VL: DIVMTQSQKFMSTSVGDRVSVTCKASQNVGTNVAWYQQKPGQSPKALIYSASYRYSGVPDRFTGSGSGTDFTLTISNVQSEDLAEYFCQQYDSYPLTFGSGTKLEIK
As to B3, the Kd was 58.5 nM, the koff came to 0.00803 s⁻¹ and the kon was found to be 137000 M⁻¹ s⁻¹.

B4: clone 2.1 Fab TA_23 (Fab, V domains shown)
VH: EVQLQESGPSLVKPSQTLSLTCSVTGDSITSGYWNWIRKFPGNKLEYMGYISYSGSTYYNPSLKSRISITRDTSKNQYYLQLNSVTTEDTATYYCARDFDVWGAGTTVTVSS
VL: DIVMTQSQKFMSTSVGDRVSVTCKASQNVGTNVAWYQQKPGQSPKALIYSASYRYSGVPDRFTGSGSGTDFTLTISNVQSEDLAEYFCHQYNSYPLTFGSGTKLEIK
With B4, the Kd was 13.3 nM, the koff stood at 0.00133 s⁻¹ and the kon amounted to 100000 M⁻¹ s⁻¹.

B5: clone 2.1 Fab CB_02 (clonal burst) (Fab, V domains shown)
VH: EVQLQESGPSLVKPSQTLSLTCSVTGDSITSGYWNWIRKFPGNKLEYMGYISYSGSTYYNPSLKSRISITRDTSKNQYYLQLNSVTTEDTATYYCGRDFDVWGAGTTVTVSS
VL: DIVMTQSQKFMSTSVGDRVSVTCKASQNVGTNVGWYQQKPGQSPKALIYSASYRYSGVPDRFTGSGSGTDFTLTISNVQSEDLAEYFCQQYNSYPLTFGSGTKLEIK
For B5, the dissociation constant Kd is 0.507 nM, the dissociation rate constant (koff) is 0.000123 s⁻¹ and the association rate constant (kon) came out at 244000 M⁻¹ s⁻¹.

B6: clone 2.1 Fab TA_10 (Fab, V domains shown)
VH: EVQLQESGPSLVKPSQTLSLTCSVTGDSITSGYWNWIRRFPGNKLEYMGYISYSGSTYYNPSLKSRISITRDTSKNQYYLQLNSVTTEDTATYYCARDFDVWGAGTTVTVSS
VL: DIVMTQSQKFMSTSVGDRVSVTCKASQNVGTNVAWYQQKPGQSPKALIYSASYRYSGVPDRFTGSGSGTDFTLTISNVQSEDLAEYFCQQYNSYPLTFGSGTKLEIK
As to B6, the Kd was 22.3 nM, the koff came out at 0.0034 s⁻¹ and the kon was 152000 M⁻¹ s⁻¹.

B7: clone 2.1 Fab TA_13 (Fab, V domains shown)
VH: EVQLQESGPSLVKPSQTLSLTCSVTGDSITSGYWNWIRKFPGNKLEYMGYISYSGSTYYNPSLKSRISITRDTSKNQYYLQLNSVTTEDTATYYCARDFDVWGAGTTVTVSS
VL: DIVMTQSQKFMSTSVGDRVSVTCKASQNVGTNVGWFQQKPGQSPKALIYSASYRYSGVPDRFTGSGSGTDFTLTISNVQSEDLAEYFCHQYYSYPLTFGSGTKLEIK
As for B7, the dissociation constant Kd was 0.549 nM, the koff turned out to be 0.000119 s⁻¹ and the kon was determined as 216000 M⁻¹ s⁻¹.

B8: clone 2.1 Fab TA_15 (Fab, V domains shown)
VH: EVQLQESGPSLVKPSQTLSLTCSVTGDSITSGYWNWIRKFPGNKLEYMGYISYSGSTYYNPSLKSRISITRDTSKNQYYLQLNSVTTEDTATYYCARDFDVWGAGTTVTVSS
VL: DIVMTQSQKFMSTSVGDRVSVTCKASQNVGTNVAWYQQKPGQSPKALIFSASYRYSGVPDRFTGSGSGTDFTLTISNVQSEDLAEYFCQQYNSYPLTFGSGTKLEIK
In the case of B8, the Kd was found to be 14.4 nM, the koff came to 0.00168 s⁻¹ and the kon was 116000 M⁻¹ s⁻¹.

B9: clone 2.1 Fab TA_25 (Fab, V domains shown)
VH: EVQLQESGPSLVKPSQTLSLTCSVTGDSITSGYWNWIRKFPGNKLEYMGYISYSGSTYYNPSLKSRISITRDTSKNQYYLQLNSVTTEDTATYYCARDFDVWGAGTTVTVSS
VL: DIVMTQSQKFMSTSVGDRVSVTCKASQNVGTNVAWYQQKPGQSPKALIYSASYRYSGVPDRFTGSGSGTDFTLTISNVQSEDLAEYFCHQYYSYPLTFGSGTKLEIK
For B9, the Kd is 3.2 nM, the koff stood at 0.000412 s⁻¹ and the kon came to 129000 M⁻¹ s⁻¹.

B10: clone 2.1 Fab TA_14 (Fab, V domains shown)
VH: EVQLQESGPSLVKPSQTLSLTCSVTGDSITSGYWNWIRKFPGNKLEYMGYISYSGSTYYNPSLKSRISITRDTSKNQYYLQLNSVTTEDTATYYCARDFDVWGAGTTVTVSS
VL: DIVMTQSQKFMSTSVGDRVSVTCKASQNVGTNVAWYQQKPGQSPKSLIYSASYRYSGVPDRFTGSGSGTDFTLTISNVQSEDLAEYFCQQYNSYPLTFGSGTKLEIK
Turning to B10, the Kd is 6.25 nM, the off-rate (koff) stood at 0.00139 s⁻¹ and the kon is 223000 M⁻¹ s⁻¹.

B11: clone 2.1 Fab TA_16 (Fab, V domains shown)
VH: EVQLQESGPSLVKPSQTLSLTCSVTGDSITSGYWNWIRKFPGNKLEYMGYISYSGSTYYNPSLKSRISITRDTSKNQYYLQLNSVTTEDTATYYCARDFDVWGAGTTVTVSS
VL: DIVMTQSQKFMSTSVGDRVSVTCKASQNVGTNVGWYQQKPGQSPKSLIFSASYRYSGVPDRFTGSGSGTDFTLTISNVQSEDLAEYFCQQYNSYPLTFGSGTKLEIK
On to B11, for which the Kd worked out at 1.49 nM, the off-rate (koff) is 0.000329 s⁻¹ and the association rate constant (kon) turned out to be 221000 M⁻¹ s⁻¹.

B12: clone 2.1 Fab TA_11 (Fab, V domains shown)
VH: EVQLQESGPSLVKPSQTLSLTCSVTGDSITSGYWNWIRKFPGNRLEYMGYISYSGSTYYNPSLKSRISITRDTSKNQYYLQLNSVTTEDTATYYCARDFDVWGAGTTVTVSS
VL: DIVMTQSQKFMSTSVGDRVSVTCKASQNVGTNVAWYQQKPGQSPKALIYSASYRYSGVPDRFTGSGSGTDFTLTISNVQSEDLAEYFCQQYNSYPLTFGSGTKLEIK
Turning to B12, the Kd worked out at 21.6 nM, the koff stood at 0.00331 s⁻¹ and the kon came to 153000 M⁻¹ s⁻¹.

B13: clone 2.1 Fab, unmutated (Fab, V domains shown)
VH: EVQLQESGPSLVKPSQTLSLTCSVTGDSITSGYWNWIRKFPGNKLEYMGYISYSGSTYYNPSLKSRISITRDTSKNQYYLQLNSVTTEDTATYYCARDFDVWGAGTTVTVSS
VL: DIVMTQSQKFMSTSVGDRVSVTCKASQNVGTNVAWYQQKPGQSPKALIYSASYRYSGVPDRFTGSGSGTDFTLTISNVQSEDLAEYFCQQYNSYPLTFGSGTKLEIK
Turning to B13, the Kd was 26 nM, the dissociation rate constant (koff) is 0.00226 s⁻¹ and the kon stood at 86700 M⁻¹ s⁻¹.

B14: clone 2.1 Fab TA_24 (Fab, V domains shown)
VH: EVQLQESGPSLVKPSQTLSLTCSVTGDSITSGYWNWIRKFPGNKLEYMGYISYSGSTYYNPSLKSRISITRDTSKNQYYLQLNSVTTEDTATYYCARDFDVWGAGTTVTVSS
VL: DIVMTQSQKFMSTSVGDRVSVTCKASQNVGTNVAWYQQKPGQSPKALIYSASYRYSGVPDRFTGSGSGTDFTLTISNVQSEDLAEYFCQQYYSYPLTFGSGTKLEIK
For B14, the Kd turned out to be 7.72 nM, the dissociation rate constant (koff) came out at 0.000911 s⁻¹ and the kon came to 118000 M⁻¹ s⁻¹.

B15: 2.1^hi Fab, high-affinity variant of clone 2.1 (Fab, V domains shown)
VH: EVQLQESGPSLVKPSQTLSLTCSVTGASITSGYWNWIRKFPGNRLEYMGYISYSGGTYYNPSLKSRISITRDTSKNQYYLQLNSVTTEDTATYYCARDFDVWGAGTTVTVSS
VL: DIVMTQSQKFMSTSVGDRVSVTCKASQNVGTNVGWFQQKPGQSPKSLIYSASYRYSGVPDRFTGSGSGTDFTLTISNVQSEDLAEYFCHQYYSYPLTFGSGTKLEIK
Turning to B15, the off-rate (koff) was 6.34e-05 s⁻¹ and the kon turned out to be 1.03e+06 M⁻¹ s⁻¹.

B16: clone 2.1 Fab TA_22 (Fab, V domains shown)
VH: EVQLQESGPSLVKPSQTLSLTCSVTGDSITSGYWNWIRKFPGNKLEYMGYISYSGSTYYNPSLKSRISITRDTSKNQYYLQLNSVTTEDTATYYCARDFDVWGAGTTVTVSS
VL: DIVMTQSQKFMSTSVGDRVSVTCKASQNVGTNVAWYQQKPGQSPKALIYSASYRYSGVPDRFTGSGSGTDFTLTISNVQSEDLAEYFCQQYSSYPLTFGSGTKLEIK
Turning to B16, the dissociation constant (Kd) is 14.9 nM, the koff was determined as 0.00124 s⁻¹ and the kon worked out at 83500 M⁻¹ s⁻¹.

B17: clone 2.1 Fab TA_19 (Fab, V domains shown)
VH: EVQLQESGPSLVKPSQTLSLTCSVTGDSITSGYWNWIRKFPGNKLEYMGYISYSGSTYYNPSLKSRISITRDTSKNQYYLQLNSVTTEDTATYYCARDFDVWGAGTTVTVSS
VL: DIVMTQSQKFMSTSVGDRVSVTCKASQNVGTNVGWFQQKPGQSPKSLIYSASYRYSGVPDRFTGSGSGTDFTLTISNVQSEDLAEYFCHQYYSYPLTFGSGTKLEIK
Regarding B17, the Kd amounted to 0.261 nM, the koff worked out at 8.66e-05 s⁻¹ and the kon was 331000 M⁻¹ s⁻¹.

B18: clone 2.1 Fab TA_27 (Fab, V domains shown)
VH: EVQLQESGPSLVKPSQTLSLTCSVTGDSITSGYWNWIRKFPGNRLEYMGYISYSGSTYYNPSLKSRISITRDTSKNQYYLQLNSVTTEDTATYYCARDFDVWGAGTTVTVSS
VL: DIVMTQSQKFMSTSVGDRVSVTCKASQNVGTNVGWFQQKPGQSPKSLIYSASYRYSGVPDRFTGSGSGTDFTLTISNVQSEDLAEYFCQQYSSYPLTFGSGTKLEIK
Turning to B18, the dissociation constant (Kd) turned out to be 0.28 nM, the koff was 0.000203 s⁻¹ and the on-rate (kon) was 724000 M⁻¹ s⁻¹.

B19: clone 2.1 Fab TA_5 (Fab, V domains shown)
VH: EVQLQESGPSLVKPSQTLSLTCSVTGASITSGYWNWIRKFPGNKLEYMGYISYSGSTYYNPSLKSRISITRDTSKNQYYLQLNSVTTEDTATYYCARDFDVWGAGTTVTVSS
VL: DIVMTQSQKFMSTSVGDRVSVTCKASQNVGTNVAWYQQKPGQSPKALIYSASYRYSGVPDRFTGSGSGTDFTLTISNVQSEDLAEYFCQQYNSYPLTFGSGTKLEIK
As to B19, the dissociation constant (Kd) worked out at 3.81 nM, the koff stood at 0.000858 s⁻¹ and the kon was 225000 M⁻¹ s⁻¹.
